Legend:
[1] = molecular target: T1, Human OX40 (R&D Systems, 3388-OX) (human, UniProt P43489 29-216); experiment: dual ELISA: OX40-Fc coated, detection with biotinylated 5T4-Fc and streptavidin-HRP, luminescence
T1 construct: bought; also called OX40-Fc; Human OX40 (R&D systems, #3358_OX)
T1 sequence (looked up): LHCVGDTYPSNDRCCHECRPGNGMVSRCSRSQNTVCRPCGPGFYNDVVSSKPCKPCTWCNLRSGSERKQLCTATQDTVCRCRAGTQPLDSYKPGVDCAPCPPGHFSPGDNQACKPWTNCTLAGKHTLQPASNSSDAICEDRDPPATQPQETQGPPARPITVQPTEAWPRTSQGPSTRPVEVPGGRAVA
Procedure: A dual ELISA was used to detect simultaneous binding of the two targets by the bispecific antibodies. ELISA plates were coated with OX40-Fc (R&D systems, #3388-OX, 0.5 μg/ml) over night at 4° C. followed by blocking with PBST+2% bovine serum albumin (BSA) for 1 h at room temperature (RT). […] Biotinylated 5T4-Fc (0.5 μg/ml), followed by HRP-labelled streptavidin (Pierce #21126) were used for detection. Super signal ELISA Pico Chemiluminescent Substrate (Thermo Scientific, #37069) was used as substrate and luminescence was measured using FLUOstar Optima.

[2] = molecular target: T2, human/mouse 5T4 chimera E2; experiment: flow cytometry, cells with 5T4 chimera; % positive cells over that of the best clone
T2 construct: on stably transfected CHO cells
Procedure: (§1) Epitope mapping was performed by investigation of loss of binding by the antibodies using a panel of human/mouse chimeric 5T4 constructs by flow cytometry. […] Two strategies were used for the epitope mapping as illustrated in FIG. 5. In one approach, seven human/mouse 5T4 chimeras were constructed based on dividing 5T4 into seven different domains (FIG. 5). By replacing each domain with the corresponding mouse sequence seven human/mouse 7 5T4 human/mouse chimeras were generated. The chimeras were generated using the human protein 5T4 sequence NP_006661.1 (reference mRNA sequence NM_006670.4) and the corresponding mouse sequence NP_035757.2 (reference mRNA sequence NM_011627.4). The human/mouse chimeric DNA constructs, as well as human and mouse wild-type 5T4, were cloned into pcDNA3.1 expression vectors. […] In the other approach, cells transfected with a human/mouse 5T4 chimera (Woods et al., 2002) was used, in which mouse sequence in amino acid 173-420 replaced the human sequence (FIG. 5). As controls human 5T4 and mouse 5T4-transfected cells were used.
(§2) For flow cytometric analysis, cells were stained with different 5T4 antibodies diluted in FACS buffer (PBS, 0.5% BSA). […] Samples were analysed by FACSverse (BD Biosciences, Heidelberg, Germany) and % positive cells were determined. To compensate for variations in % 5T4 positive cells in the various transfected populations, binding levels were normalized within each chimera by dividing % positive cells for each clone with % positive cells for the clones resulting in the highest % positive cells (% pos cellsclonX/% positive cellsₘₐₓ). A normalized value≤0.75 was defined as mAb binding being dependent on the replaced region, whereas a normalized value≤0.25 was defined as complete dependence.

[3] = molecular target: T3, human/mouse 5T4 chimera E6; experiment: as above
T3 construct: on stably transfected CHO cells
Procedure: as §1, §2

[4] = molecular target: T4, human/mouse 5T4 chimera E1; experiment: as above
T4 construct: on stably transfected CHO cells
Procedure: as §1, §2

[5] = molecular target: T5, human/mouse 5T4 chimera E3; experiment: as above
T5 construct: on stably transfected CHO cells
Procedure: as §1, §2

[6] = molecular target: T6, human/mouse 5T4 chimera E5; experiment: as above
T6 construct: on stably transfected CHO cells
Procedure: as §1, §2

[7] = molecular target: T7, human/mouse 5T4 chimera E7; experiment: as above
T7 construct: on stably transfected CHO cells
Procedure: as §1, §2

[8] = molecular target: T8, human/mouse 5T4 chimera E4; experiment: as above
T8 construct: on stably transfected CHO cells
Procedure: as §1, §2

| Binder | binding result [1] | normalized % positive cells [2] | normalized % positive cells [3] | normalized % positive cells [4] | normalized % positive cells [5] | normalized % positive cells [6] | normalized % positive cells [7] | normalized % positive cells [8] |
| --- | --- | --- | --- | --- | --- | --- | --- | --- |
| 1210/1211 (antibody, IgG1, V domains shown, 5T4 antibody) VH: not shown VL: DIQMTQSPSSLSASVGDRVTITCRASQSISSYLNWYQQKPGKAPKLLIYAASSLQSGVPSRFSGSGSGTDFTLTISSLQPEDFATYYCQQTYGYLHTFGQGTKLEIK | no binding (tested: about 80 nM (log[conc ab] 1.9)) | 0.02 | 0.89 | 0.99 | 0.9 | 0.89 | 0.96 | 0.69 |
| 1206/1207 (antibody, V domains shown, 5T4 antibody) VH: EVQLLESGGGLVQPGGSLRLSCAASGFTFSGSSMSWVRQAPGKGLEWVSSIYYSGSGTYYADSVKGRFTISRDNSKNTLYLQMNSLRAEDTAVYYCARYGRNVHPYNLDYWGQGTLVTVSS VL: DIQMTQSPSSLSASVGDRVTITCRASQSISSYLNWYQQKPGKAPKLLIYAASSLQSGVPSRFSGSGSGTDFTLTISSLQPEDFATYYCQQGYYYLPTFGQGTKLEIK | – | 0.74 | 0.94 | 0.96 | 0.25 | 0.9 | 0.94 | 0.52 |

— patent US20190161555A1 (ALLIGATOR BIOSCIENCE, published 2019)
